Literature values as cited in article PMC2949527.

Target: RFX5(25-90)2·RFXAP(214-272) complex 25-90 + 214-272 (Homo sapiens) (UniProt P48382)
Sequence (P48382 2-616, chain 1 of 2): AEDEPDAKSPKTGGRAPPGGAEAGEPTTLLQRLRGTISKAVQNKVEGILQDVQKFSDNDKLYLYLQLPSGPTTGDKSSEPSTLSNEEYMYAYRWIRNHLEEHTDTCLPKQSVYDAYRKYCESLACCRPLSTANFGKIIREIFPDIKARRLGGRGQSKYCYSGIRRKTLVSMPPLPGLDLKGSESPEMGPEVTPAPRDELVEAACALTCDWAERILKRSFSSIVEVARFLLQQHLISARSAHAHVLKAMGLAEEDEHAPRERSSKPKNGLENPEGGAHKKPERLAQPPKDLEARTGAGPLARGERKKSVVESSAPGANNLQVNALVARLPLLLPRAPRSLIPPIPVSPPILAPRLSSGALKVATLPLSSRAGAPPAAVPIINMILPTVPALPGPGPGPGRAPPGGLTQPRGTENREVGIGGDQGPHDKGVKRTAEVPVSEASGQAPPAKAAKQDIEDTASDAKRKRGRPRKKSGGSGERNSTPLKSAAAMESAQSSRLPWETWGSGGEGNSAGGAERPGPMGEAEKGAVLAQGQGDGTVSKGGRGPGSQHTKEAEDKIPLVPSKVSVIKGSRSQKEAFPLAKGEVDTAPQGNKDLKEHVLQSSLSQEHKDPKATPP
Sequence (O00287 whole entry, chain 2 of 2, further chain): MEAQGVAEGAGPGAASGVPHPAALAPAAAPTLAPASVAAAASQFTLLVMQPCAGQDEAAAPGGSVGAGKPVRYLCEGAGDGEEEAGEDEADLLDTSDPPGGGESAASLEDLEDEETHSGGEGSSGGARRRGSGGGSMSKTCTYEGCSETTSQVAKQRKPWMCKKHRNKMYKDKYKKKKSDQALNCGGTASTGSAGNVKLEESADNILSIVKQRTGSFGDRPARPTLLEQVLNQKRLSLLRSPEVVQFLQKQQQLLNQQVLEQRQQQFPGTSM

RFXB, sequence (O14593 whole entry): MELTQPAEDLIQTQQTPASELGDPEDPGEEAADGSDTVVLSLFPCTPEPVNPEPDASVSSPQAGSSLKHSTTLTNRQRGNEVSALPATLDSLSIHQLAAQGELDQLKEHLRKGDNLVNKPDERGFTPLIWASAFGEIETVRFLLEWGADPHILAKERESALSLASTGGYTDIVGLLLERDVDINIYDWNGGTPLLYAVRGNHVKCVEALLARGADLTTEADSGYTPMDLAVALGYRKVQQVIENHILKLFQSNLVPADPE

For RFXB (from UniProt O14593), the Kd is given as 76 nM.
